Values joined by “and” are separate entries in the source; they are usually repeats but may differ in a detail not shown here. Identical values can stand only once.
Legend:
[1] = biological target: PfuMoaB-H3 variant (α3-helix exchanged against the corresponding helix of E. coli MogA) (Pyrococcus furiosus) (UniProt Q8U3T3); assay: cross-linking; 0.5 mg/ml protein, 2 mM EDC, 0.1 M MES pH 6.0, 0.5 M NaCl, 3 h; SDS-PAGE; trimer bands analysed by LC-MS/MS
[2] = biological target: PfuMoaB-H3 variant (α3-helix exchanged against the corresponding helix of E. coli MogA) (Pyrococcus furiosus) (UniProt Q8U3T3); assay: cross-linking; 0.5 mg/ml protein, 1.5 mM BS3, 20 mM sodium phosphate pH 8.0, 0.2 M NaCl, 30 min; SDS-PAGE
[3] = biological target: PfuMoaB-H3 variant (α3-helix exchanged against the corresponding helix of E. coli MogA) (Pyrococcus furiosus) (UniProt Q8U3T3); assay: SEC; analytical Superdex 200 10/300, 0.1 M Tris pH 8.0, 0.2 M NaCl, 0.5 ml/min, 4°C; 5-10 nmol of Ni-NTA purified protein; masses by standard proteins
[4] = biological target: the molecule itself; assay: as above
[5] = biological target: the molecule itself; assay: crystal structure; space group P3(1)21, three chains in the asymmetric unit, hexamer by the two-fold crystallographic axis; crystals from 0.1 MES pH 6.0, 40% PEG 400, 5% PEG 3000, 20°C; 2.5 Å
[6] = biological target: the molecule itself; assay: cross-linking; 0.5 mg/ml protein, 2 mM EDC, 0.1 M MES pH 6.0, 0.5 M NaCl, 3 h; SDS-PAGE; trimer bands analysed by LC-MS/MS
[7] = biological target: the molecule itself; assay: SEC; preparative Superdex 200 16/60 pg, Ni-NTA purified protein; fractions analysed by SDS-PAGE

PfuMoaB-H3 variant (α3-helix exchanged against the corresponding helix of E. coli MogA) (from UniProt Q8U3T3 1-169) (enzyme)
stoichiometry N [1]: 2 and 3 | stoichiometry N [2]: 3 and 2 | stoichiometry N [3]: 3 and 2

B1: G-domain of A. thaliana Cnx1 (domain or fragment, Arabidopsis thaliana)
chain: VPGPEYKVAILTVSDTVSAGAGPDRSGPRAVSVVDSSSEKLGGAKVVATAVVPDEVERIKDILQKWSDVDEMDLILTLGGTGFTPRDVTPEATKKVIERETPGLLFVMMQESLKITPFAMLSRSAAGIRGSTLIINMPGNPNAVAECMEALLPALKHALKQIKGDKR
notes: G domain of the molybdenum cofactor biosynthesis protein Cnx1 of Arabidopsis thaliana; also called AthCnx1G; Cnx1G; source: E. coli, purified (Ni-NTA)
stoichiometry N [4]: 3

B2: E. coli MoaB (natural protein, Escherichia coli, UniProt P0AEZ9 1-170, looked up)
chain: MSQVSTEFIPTRIAILTVSNRRGEEDDTSGHYLRDSAQEAGHHVVDKAIVKENRYAIRAQVSAWIASDDVQVVLITGGTGLTEGDQAPEALLPLFDREVEGFGEVFRMLSFEEIGTSTLQSRAVAGVANKTLIFAMPGSTKACRTAWENIIAPQLDARTRPCNFHPHLKK
notes: MoaB of Escherichia coli; also called EcoMoaB; source: E. coli, purified (Ni-NTA)
stoichiometry N [4]: 6

B3: Pyrococcus furiosus MPT-adenylyl-transferase MoaB, wild type (enzyme)
chain: MGVEEHKKEAPKTFKFGVITVSDKGAKGEREDKSGPLIIEELSKLGEHVYYKIVPDDKIEVLIALFEAIKSGADVVVTTGGTGITRRDITIESIKPLFDKELSFGEVFRAKSYEEVGYATVLTRATAGIIRGQERIVVVFSLPGSVNAVKTGLEIIKSEVFHILKHARE
notes: MoaB, MPT-adenylyl-transferase of Pyrococcus furiosus; residues from 1 on are in the construct (1-9/10/11 disordered in the crystal), Glu169 is named; predicted mass with tag 19,971.95 Da; also called PfuMoaB; PfuMoaB-WT; source: E. coli BL21(DE3), purified (Ni-NTA); not shown: His-tag, N-terminal, kept
stoichiometry N [5]: 6 | stoichiometry N [6]: 3 and 2

B4: PfuMoaB I59R/I63R/F66R variant (enzyme, Pyrococcus furiosus)
chain: MGVEEHKKEAPKTFKFGVITVSDKGAKGEREDKSGPLIIEELSKLGEHVYYKIVPDDKREVLRALREAIKSGADVVVTTGGTGITRRDITIESIKPLFDKELSFGEVFRAKSYEEVGYATVLTRATAGIIRGQERIVVVFSLPGSVNAVKTGLEIIKSEVFHILKHARE
notes: MoaB of Pyrococcus furiosus with three arginines in the α3-helix; Increased tendency to precipitation was observed
binding result [7]: binds

B5: E. coli MogA (enzyme, Escherichia coli, UniProt P0AF03 1-195, looked up)
chain: MNTLRIGLVSISDRASSGVYQDKGIPALEEWLTSALTTPFELETRLIPDEQAIIEQTLCELVDEMSCHLVLTTGGTGPARRDVTPDATLAVADREMPGFGEQMRQISLHFVPTAILSRQVGVIRKQALILNLPGQPKSIKETLEGVKDAEGNVVVHGIFASVPYCIQLLEGPYVETAPEVVAAFRPKSARRDVSE
notes: MogA, MPT-adenylyl-transferase of Escherichia coli; also called EcoMogA; MogA (E. coli); source: E. coli, purified (Ni-NTA); not shown: His-tag, N-terminal, kept
stoichiometry N [4]: 3
